Experiment [1] deals with T1, SARS-CoV-2 S ectodomain trimer, prefusion-stabilized, 2P variant (Wrapp et al., 2020) (SARS-CoV-2, Wuhan-Hu-1, UniProt P0DTC2, stabilised).
For experiment [2], the target named is T1, SARS-CoV-2 S ectodomain trimer, …. Put plainly: ELISA. In general terms: An ELISA detects its analyte on a solid surface through an enzyme-linked reagent.

Numbering of substitutions follows the chain as printed. Read-outs that look alike come from different tables or passages of the source.

B1: C12B5 (antibody, V domains shown)
VH: QVQLVESGGGVVQPGRSLRLSCAASGFTFSSYGMHWVRQAPGKGLEWVAVIWYDGSNKYYADSVKGRFTISRDNSKNTLYLQMNSLRAEDTAVYYCARDLAVATQNDYWGQGTLVTVSS
VL: SYELTQPPSVSVSPGQTARITCSGDALPKKYAYWYQQKSGQAPVLVIYEDGKRPSGIPERFSGSSSGTMATLTISGAQVEDEADYYCYSTDSSGNRWVFGGGTKLTVL
Consider B1, for which the binding result in experiment [1] is listed as “binds”.

B2: G32B4 (antibody, V domains shown)
VH: not shown
VL: B1 VL with G51S, R96L
For B2, in experiment [1], the binding result was “binds”.

B3: C81E12 (antibody, V domains shown)
VH: B1 VH with A101R, V102L, A103G, T104D, Q105H, N106F
VL: B1 VL with G51S, R96H, W97R
Regarding B3, the binding result in experiment [1] was “binds”.

B4: mAb 4A8 (published; Chi et al., 2020) (antibody, V domains shown)
VH: QVQLVESGAEVKKPGASVKVSCKVSGYTLTELSMHWVRQAPGKGLEWMGGFDPEDGETMYAQKFQGRVTMTEDTSTDTAYMELSSLRSEDTAVYYCATSTAVAGTPDLFDYYYGMDVWGQGTTVTVSS
VL: EIVMTQSPLSSPVTLGQPASISCRSSQSLVHSDGNTYLSWLQQRPGQPPRLLIYKISNRFSGVPDRFSGSGAGTDFTLKISRVEAEDVGVYYCTQATQFPYTFGQGTKVDIK
Regarding B4, the binding result in experiment [2] is “binds”.

B5: G32M1 (antibody, V domains shown)
VH: QVQLVESGGGVVQPGRSLRLSCVASGFTFSSYGMHWVRQAPGKGLEWVAVIWYDGSNKYYADSVKGRFTISRDNSKNTLYLQMNSLRAEDTAVYYCAREYRSSWYNWFDSWGQGTLVTVSS
VL: SYELTQPPSVSVSPGQTARITCSGDALPKQYAYWYQQKPGQAPVMVIYKDSERPSGIPERFSGSSSGTTVTLTISGVQAEDEADYYCQSADSSGTSYVFGTGTKVTVL
For the molecule B5, the binding result in experiment [1] is “binds”.
